Experimental data reported in patent US20170119854A1, “HIGHLY CONCENTRATED DRUG PARTICLES, FORMULATIONS, SUSPENSIONS AND USES THEREOF” (Intarcia Therapeutics, Inc., priority 2008, published 2017).

Assay: In vitro release rate from implantable osmotic delivery device (RP-HPLC)
Assay type: physicochemical
Settings: 37° C., out to 100 days
Procedure: For each study, a drug reservoir of an implantable osmotic delivery device was filled with 160 μl of one of the suspension formulations described in Example 2. The membrane ends of the osmotic pumps were placed into stoppered glass vials filled with 3 ml phosphate buffer solution (PBS), and the diffusion moderator ends of the osmotic pumps were placed into glass vials filled with 2.5 to 3 ml release rate medium (citrate buffer solution at pH 6.0 with 0.14 M NaCl and 0.2% sodium azide).
Each system was placed into a capped test tube, with the diffusion moderator side down, and partially immersed in a 37° C. water bath. At specified time points, the glass vials at the diffusion moderator ends were replaced with new glass vials filled with 2.5 to 3 ml release rate medium (citrate buffer solution at pH 6.0 with 0.14 M NaCl and 0.2% sodium azide). Samples were collected from the diffusion moderator ends of the osmotic pumps and analyzed using RP-HPLC.

omega interferon showed an approximate release rate of roughly 50 µg/day.
